B1: Ankyrin-2, residues 3571 to 3650; numbered along this chain, Q01484 (parent)
chain: ERLAYIADHLGFSWTELARELDFTEEQIHQIRIENPNSLQDQSHALLKYWLERDGKHATDTNLVECLTKINRMDIVHLME

35 variants from the Human Domainome abundance scans (Beltran et al. 2025) can be followed below.

± gives the uncertainty stated by the source.

Variants of B1 are the subject of the data set. As to the kind of experiment: abundance fitness (aPCA) (normalised: wild type 0, dead -1); higher = more abundant; growth selection in yeast, the domain comes from the species named. The settings on record: Homo sapiens.
Regarding ERLAYIADHLGFSWTELARELDFTEEQIHQIRIENPNSLQDQSHALLKYWLERDGKHATDTNLVECMTKINRMDIVHLME, the abundance fitness is -0.249 ± 0.1.

Regarding ERLAYIADHLGFSWTELARELDFTEEQIHQIRIENPNSFQDQSHALLKYWLERDGKHATDTNLVECLTKINRMDIVHLME, the abundance fitness was -0.013 ± 0.14. As to ERLAYIADHLGFSWTELARELDFTEEQIHIIRIENPNSLQDQSHALLKYWLERDGKHATDTNLVECLTKINRMDIVHLME, the abundance fitness was -0.076 ± 0.11. On to ERLAYIADHLGFSWTELARELDFTEEQIHQIRIENPNSLQDQSHALLKYWLEKDGKHATDTNLVECLTKINRMDIVHLME, for which the abundance fitness is -0.029 ± 0.16.

In the case of ERLAYIADHLGFSWTELARELDFTEEQIHQIRIENPNSLQDQSVALLKYWLERDGKHATDTNLVECLTKINRMDIVHLME, the abundance fitness amounted to 0.085 ± 0.098.

In the case of ERLAYIADHLGFSWTELARELDFTEEQIHQIRIENPNSLQDQSHALLKYWLERDGKSATDTNLVECLTKINRMDIVHLME, the abundance fitness came to 0.06 ± 0.058.

Consider ERLAYIADHLGFSWTELARELDFTEEQIHQIRIENPNSLQDQSHALLKYWLERDGKKATDTNLVECLTKINRMDIVHLME, for which the abundance fitness was 0.056 ± 0.16. As for ERLAYIADHLGFSWTELARELDFTEEQIHQIRIENPNSLQDQSHALGKYWLERDGKHATDTNLVECLTKINRMDIVHLME, the abundance fitness was -0.409 ± 0.06. To ERLAYIADHLGFSWTELARELDFTEEQIHQIRIENPNSLQDQSHALAKYWLERDGKHATDTNLVECLTKINRMDIVHLME belongs -0.191 ± 0.065. For the variant ERLAYIADHLGFSWTELARELDFTEEQIHQIRIENPNSLQDQSHALLKYWLERDGKHATDTNLVECLTKITRMDIVHLME, the abundance fitness is -0.18 ± 0.078. To ERLAYIADHLGFSWTELARELDFTEEQIHQIRIENPNSLQDQSHALLKYWLERDGKHATDTNLVELLTKINRMDIVHLME belongs -0.126 ± 0.061; to ERLAYIADHLGFSWTELARELDFTEPQIHQIRIENPNSLQDQSHALLKYWLERDGKHATDTNLVECLTKINRMDIVHLME, -0.086 ± 0.064. Consider ERLAYIADHLGFSWTELARELDFTEMQIHQIRIENPNSLQDQSHALLKYWLERDGKHATDTNLVECLTKINRMDIVHLME, for which the abundance fitness is -0.041 ± 0.098. To ERLAYIADHLGFSWTELARELDFTESQIHQIRIENPNSLQDQSHALLKYWLERDGKHATDTNLVECLTKINRMDIVHLME belongs -0.091 ± 0.057; to ERLAYIADHLGFSWTELARELDFTEEQIHQIRIERPNSLQDQSHALLKYWLERDGKHATDTNLVECLTKINRMDIVHLME, -0.033 ± 0.048; to ERLAYIADHLGFSWTELARELDFTEEQIHQIRIEDPNSLQDQSHALLKYWLERDGKHATDTNLVECLTKINRMDIVHLME, -0.296 ± 0.17. The result for ERLAYIADHLGFSWTELARELDFTEEQIHQIRIESPNSLQDQSHALLKYWLERDGKHATDTNLVECLTKINRMDIVHLME reads -0.093 ± 0.051. As to ERLAYIADHLGFSWTELARELDFTEEQIHQIRIENPNSLQDQSHALLKYWLERDGKHATDTNLVYCLTKINRMDIVHLME, the abundance fitness was determined as 0.097 ± 0.12. Take ERLAYIADHLGFSWTELARELDFTEEQIHQIRQENPNSLQDQSHALLKYWLERDGKHATDTNLVECLTKINRMDIVHLME: the abundance fitness was 0.003 ± 0.13. Turning to ERLAYIADHLGFSWTELARELDQTEEQIHQIRIENPNSLQDQSHALLKYWLERDGKHATDTNLVECLTKINRMDIVHLME, the abundance fitness is -0.912 ± 0.18.

Turning to ERLAYIADHLGFSWTELARELDFTEEQIHQIRIENPNSLQDQSHALLKYWLPRDGKHATDTNLVECLTKINRMDIVHLME, the abundance fitness was -0.378 ± 0.12. The result for ERLAYIADHLGFSWTELARELDFTEEQIHQIRIENPNSLQDQSHALLKYWLFRDGKHATDTNLVECLTKINRMDIVHLME reads -0.034 ± 0.14; that for ERLAYIADHLGFSWTEAARELDFTEEQIHQIRIENPNSLQDQSHALLKYWLERDGKHATDTNLVECLTKINRMDIVHLME, -0.134 ± 0.076; that for ERLAYIADHLGFSWTEIARELDFTEEQIHQIRIENPNSLQDQSHALLKYWLERDGKHATDTNLVECLTKINRMDIVHLME, -0.024 ± 0.18. ERLAYIADHLGFSWTECARELDFTEEQIHQIRIENPNSLQDQSHALLKYWLERDGKHATDTNLVECLTKINRMDIVHLME: the abundance fitness is -0.035 ± 0.089.

For ERLAYIADHLGFSWTELARELDFTEELIHQIRIENPNSLQDQSHALLKYWLERDGKHATDTNLVECLTKINRMDIVHLME, the abundance fitness was -0.039 ± 0.066. Regarding ERLAYIADHLGFSWTELARELDFGEEQIHQIRIENPNSLQDQSHALLKYWLERDGKHATDTNLVECLTKINRMDIVHLME, the abundance fitness is -0.014 ± 0.057.

Regarding ERLMYIADHLGFSWTELARELDFTEEQIHQIRIENPNSLQDQSHALLKYWLERDGKHATDTNLVECLTKINRMDIVHLME, the abundance fitness was determined as 0.004 ± 0.078. For the variant ERLAYIADHLGFGWTELARELDFTEEQIHQIRIENPNSLQDQSHALLKYWLERDGKHATDTNLVECLTKINRMDIVHLME, the abundance fitness was -0.035 ± 0.074. ERLAYIADHLGFSWTELARELDFTEEQIHQIRIENPNSLQDQSHALLKYWLERDGKHAYDTNLVECLTKINRMDIVHLME: the abundance fitness came out at 0.121 ± 0.13. ERLAYIADHLGFSWTELARELDFTEEQIHQIRIENPNSLQDQSHALLKYWLERDDKHATDTNLVECLTKINRMDIVHLME: the abundance fitness came to 0.041 ± 0.073.

On to ERLAYIADHLGESWTELARELDFTEEQIHQIRIENPNSLQDQSHALLKYWLERDGKHATDTNLVECLTKINRMDIVHLME, for which the abundance fitness was -0.191 ± 0.15. As for ERLAYIADHLGFSWTELARELDFTEEQIHQIRIENPNSLQDVSHALLKYWLERDGKHATDTNLVECLTKINRMDIVHLME, the abundance fitness was -0.204 ± 0.18. As for ERLAYIADHLGFSWTELARELDFTEEQIHQIRIENPNSLQDQSHALLKYWLERDGKHATTTNLVECLTKINRMDIVHLME, the abundance fitness is -0.016 ± 0.11. As for ERLAYIADHLGFSWTELARELDFTEEQIHQIRIENPNSLQDQSHALLKYWLERDGKHATFTNLVECLTKINRMDIVHLME, the abundance fitness came out at 0.074 ± 0.093.
